Measurements as given in patent US8524666 (IBCC, dated 2013).

Legend:
Experiment in all cases: GST pull-down from transfected MCF-7 lysate, western blot
[1] = biological target: T1, vimentin deletion mutant containing aa 97-466 of SEQ ID NO: 1 (human, UniProt P08670 97-464)
T1 construct: Tested in lysate of transfected MCF-7 cells; The forward oligo carries an ATG start codon before the fragment; not shown: C-terminal Myc and His tags of the pcDNA3.1/MycHis B vector
Protocol: (§1) Full length vimentin or its deletion mutant constructs were transfected into MCF-7 cells. After incubation cells were lysed and lysate was used in pull-down reaction using GST-tagged CD44-HABD proteins immobilised onto glutathione sepharose beads. After pull-down, beads were washed and bound proteins were eluted. Eluates were analysed on western blot. A, vimentin deletion mutants used in pull-down reactions. B, WB of pull-down reactions from vimentin and its deletion mutant transfected cell lysates.
(§2) CD44-3MUT binding of vimentin deletion mutants was tested using GST pull-down from cell lysates. MCF-7 cells were transfected with vimentin deletion-constructs on 15 cm cell culture plates using 20 µg DNA with polyethyleneimine (PEI; DNA and PEI were used in ratio 1:2). Transfected cells were incubated at 37° C. for 72 h. Thereafter, adherent cells were washed once with cold PBS and lysed in 2 ml of lysis buffer containing 50 mM Tris pH 8.0, 50 mM NaCl, 2% CHAPS and protease inhibitor cocktail (Roche). For removal of insoluble material the lysates were centrifuged 14000 rpm 30 min at 4° C. Resulting lysates were used in GST pull-down. For pull-down 10 µg GST, GST-HABD or GST-3MUT were immobilised onto glutathione sepharose 4 fast flow beads (GE Healthcare) in 0.5 ml of PBS. Cell lysates were precleared by incubating the lysates with GST-coupled glutathione beads for 2 h at 4° C. with continuous rotation. After preclearing, the lysates (0.6 vol per reaction) were incubated over-night at 4° C. with GST, GST-HABD or GST-3MUT proteins immobilised onto 25 µl glutathione sepharose beads. After pull-down reactions, beads were washed 4 times with 0.3 ml vol wash buffer containing 50 mM Tris pH 8.0, 150 mM NaCl and protease inhibitor cocktail. Bound proteins were eluted 3 times with 25 µl volume elution buffer 20 mM reduced glutathione, 50 mM Tris pH 8.0. Eluates were pooled and after SDS PAAG pull-down reactions were analysed by western blotting with anti-His specific pAb (H-15) (Santa Cruz Biotechnology) or anti-vimentin specific pAb (Genway).

[2] = biological target: T2, vimentin deletion mutant containing aa 134-466 of SEQ ID NO: 1 (human, UniProt P08670 134-464)
T2 construct: Tested in lysate of transfected MCF-7 cells; not shown: EGFP and linker of the pEGFP-C3 vector
T2 sequence (P08670 other isoform, or with tags, fused parts or gaps mutant): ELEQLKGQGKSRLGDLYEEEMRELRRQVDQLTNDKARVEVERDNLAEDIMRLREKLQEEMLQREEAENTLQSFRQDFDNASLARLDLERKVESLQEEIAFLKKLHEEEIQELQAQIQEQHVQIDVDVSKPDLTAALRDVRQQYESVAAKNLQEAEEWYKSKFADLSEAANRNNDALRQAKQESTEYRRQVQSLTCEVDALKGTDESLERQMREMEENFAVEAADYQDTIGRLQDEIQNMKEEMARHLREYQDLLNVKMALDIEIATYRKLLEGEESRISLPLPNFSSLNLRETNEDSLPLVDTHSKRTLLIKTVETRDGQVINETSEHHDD
Protocol: as §1, §2

[3] = biological target: T3, vimentin deletion mutant containing aa 407-466 of SEQ ID NO: 1 (human, UniProt P08670 407-464)
T3 construct: Tested in lysate of transfected MCF-7 cells; not shown: EGFP and linker of the pEGFP-C2 vector
T3 sequence (P08670 other isoform, or with tags, fused parts or gaps mutant): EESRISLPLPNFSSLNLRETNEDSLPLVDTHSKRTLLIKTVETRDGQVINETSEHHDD
Protocol: as §1, §2

Measured: binding result

T1 sequence (P08670 other isoform, or with tags, fused parts or gaps mutant): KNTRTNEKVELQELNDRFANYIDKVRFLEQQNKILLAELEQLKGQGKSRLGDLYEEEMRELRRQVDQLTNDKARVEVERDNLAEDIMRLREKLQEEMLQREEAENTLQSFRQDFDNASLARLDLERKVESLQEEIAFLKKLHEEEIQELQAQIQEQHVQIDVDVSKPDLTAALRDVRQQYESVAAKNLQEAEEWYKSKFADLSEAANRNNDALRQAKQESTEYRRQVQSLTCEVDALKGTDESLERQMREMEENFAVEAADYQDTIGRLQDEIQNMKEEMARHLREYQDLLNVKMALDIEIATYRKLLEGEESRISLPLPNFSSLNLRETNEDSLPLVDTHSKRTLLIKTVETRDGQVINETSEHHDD

B1: GST tagged CD44-HABD R41AR78SY79S mutant (CD44-3MUT) (other, not shown: a dimerising Fc or GST; small tags and cut ends)
chain: QIDLNMTCRFAGVFHVEKNGAYSISRTEAADLCKAFNSTLPTMAQMEKALSIGFETCSSGFIEGHVVIPRIHPNSICAANNTGVYILTSNTSQYDTYCFNASAPPEEDCTSV
notes: Immobilised on glutathione sepharose beads in the pull-downs; also called GST-3MUT; GST-SB101
no binding: all assays above
